According to the RNAGym collection of RNA variant scans (doi:10.7554/elife.80360):

B1: CPEB3 Ribozyme (parent)
chain: GGGGGCCACAGCAGAAGCGUUCACGUCGCGGCCCCUGUCAGAUUCUGGUGAAUCUGCGAAUUCUGCUGU

Variants of: B1
Assay: self-cleavage, relative activity (ratio to wild type); higher = more cleavage; co-transcriptional

Compared with C34A U49A, C34A U49C is lower in self-cleavage: 0.867 for the first, 0.79 for the second.

First: C34A U53A
Second: C34A U53C
The self-cleavage of the first is lower: 0.409 for the first, 0.565 for the second.

Compared with C34A U53G, C34A U55C is lower in self-cleavage: 0.331 for the first, 0.264 for the second.

First: C34A U55G
Second: C34A U61A
The self-cleavage of the first is lower: 0.357 for the first, 0.466 for the second.

Compared with C34A U61C, C34A U62A is higher in self-cleavage: 0.432 for the first, 0.602 for the second.

First: C34A U62C
Second: C34A U62G
The self-cleavage of the first is lower: 0.358 for the first, 0.434 for the second.

Going from C34A U64A to C34A U64C, the self-cleavage falls from 0.794 to 0.728.

Going from C34A U69A to C34A U69G, the self-cleavage falls from 0.971 to 0.947.

Going from C34G to C34G A40C, the self-cleavage falls from 0.74 to 0.326.

Going from C34G A40G to C34G A40U, the self-cleavage falls from 0.631 to 0.417.

Going from C34G A42C to C34G A51C, the self-cleavage rises from 0.317 to 0.504.

Compared with C34G A51G, C34G A51U is higher in self-cleavage: 0.625 for the first, 0.671 for the second.

First: C34G A52U
Second: C34G A59G
The self-cleavage of the first is higher: 0.661 for the first, 0.538 for the second.

First: C34G A59U
Second: C34G C35A
The self-cleavage of the first is higher: 0.234 for the first, 0.196 for the second.

Compared with C34G C35G, C34G C35U is higher in self-cleavage: 0.244 for the first, 0.29 for the second.

Compared with C34G C39A, C34G C45A is higher in self-cleavage: 0.394 for the first, 0.641 for the second.

First: C34G C45G
Second: C34G C45U
The self-cleavage of the first is lower: 0.604 for the first, 0.746 for the second.

First: C34G C54A
Second: C34G C54G
The self-cleavage of the first is higher: 0.368 for the first, 0.343 for the second.

Compared with C34G C54U, C34G C57G is lower in self-cleavage: 0.708 for the first, 0.332 for the second.

First: C34G C63G
Second: C34G C66G
The self-cleavage of the first is lower: 0.338 for the first, 0.434 for the second.

Compared with C34G G37A, C34G G37U is lower in self-cleavage: 0.24 for the first, 0.171 for the second.

Going from C34G G41A to C34G G41C, the self-cleavage falls from 0.318 to 0.296.

Going from C34G G41U to C34G G47A, the self-cleavage rises from 0.33 to 0.769.

First: C34G G47C
Second: C34G G47U
The self-cleavage of the first is higher: 0.724 for the first, 0.605 for the second.

Going from C34G G48A to C34G G48C, the self-cleavage falls from 0.765 to 0.722.

Going from C34G G48U to C34G G50C, the self-cleavage falls from 0.753 to 0.64.

Compared with C34G G50U, C34G G56A is lower in self-cleavage: 0.839 for the first, 0.579 for the second.

First: C34G G56U
Second: C34G G65C
The self-cleavage of the first is higher: 0.538 for the first, 0.331 for the second.

First: C34G G65U
Second: C34G G68C
The self-cleavage of the first is lower: 0.325 for the first, 0.842 for the second.

First: C34G G68U
Second: C34G U36C
The self-cleavage of the first is higher: 0.929 for the first, 0.819 for the second.

Compared with C34G U36G, C34G U38A is higher in self-cleavage: 0.263 for the first, 0.733 for the second.

First: C34G U43C
Second: C34G U43G
The self-cleavage of the first is higher: 0.547 for the first, 0.383 for the second.

Going from C34G U44C to C34G U44G, the self-cleavage falls from 0.578 to 0.446.

Compared with C34G U46A, C34G U46G is lower in self-cleavage: 0.776 for the first, 0.766 for the second.

Compared with C34G U49A, C34G U49C is lower in self-cleavage: 0.784 for the first, 0.689 for the second.

Going from C34G U49G to C34G U53C, the self-cleavage falls from 0.64 to 0.562.

Going from C34G U53G to C34G U61C, the self-cleavage rises from 0.27 to 0.423.

Going from C34G U62A to C34G U62C, the self-cleavage falls from 0.453 to 0.316.

Going from C34G U62G to C34G U64A, the self-cleavage falls from 0.477 to 0.384.

First: C34G U64C
Second: C34G U64G
The self-cleavage of the first is higher: 0.402 for the first, 0.35 for the second.

Compared with C34G U67C, C34G U67G is higher in self-cleavage: 0.766 for the first, 0.894 for the second.

Going from C34G U69A to C34G U69C, the self-cleavage rises from 0.886 to 0.971.

Compared with C34U, C34U A40C is lower in self-cleavage: 0.991 for the first, 0.602 for the second.

First: C34U A40G
Second: C34U A40U
The self-cleavage of the first is higher: 0.963 for the first, 0.838 for the second.

First: C34U A42C
Second: C34U A42G
The self-cleavage of the first is lower: 0.843 for the first, 0.932 for the second.

First: C34U A42U
Second: C34U A51C
The self-cleavage of the first is lower: 0.924 for the first, 0.985 for the second.

First: C34U A51G
Second: C34U A51U
The self-cleavage of the first is higher: 1.01 for the first, 0.957 for the second.

First: C34U A52C
Second: C34U A52U
The self-cleavage of the first is lower: 0.958 for the first, 0.975 for the second.

First: C34U A59C
Second: C34U A59G
The self-cleavage of the first is lower: 0.661 for the first, 0.899 for the second.

First: C34U A60C
Second: C34U A60G
The self-cleavage of the first is lower: 0.371 for the first, 0.789 for the second.

First: C34U A60U
Second: C34U C35A
The self-cleavage of the first is higher: 0.452 for the first, 0.194 for the second.

Going from C34U C35G to C34U C35U, the self-cleavage rises from 0.313 to 0.736.

Going from C34U C39A to C34U C39G, the self-cleavage rises from 0.834 to 0.973.

Going from C34U C39U to C34U C45G, the self-cleavage rises from 0.943 to 0.992.

Compared with C34U C45U, C34U C54A is lower in self-cleavage: 1.03 for the first, 0.809 for the second.

First: C34U C54G
Second: C34U C54U
The self-cleavage of the first is lower: 0.819 for the first, 0.985 for the second.

First: C34U C57A
Second: C34U C57U
The self-cleavage of the first is lower: 0.315 for the first, 0.385 for the second.

Compared with C34U C63G, C34U C66A is higher in self-cleavage: 0.78 for the first, 0.973 for the second.

Compared with C34U C66U, C34U G37C is lower in self-cleavage: 0.977 for the first, 0.226 for the second.

First: C34U G37U
Second: C34U G41A
The self-cleavage of the first is lower: 0.247 for the first, 0.828 for the second.

Going from C34U G47A to C34U G47C, the self-cleavage rises from 0.958 to 0.968.

Compared with C34U G47U, C34U G48U is lower in self-cleavage: 0.995 for the first, 0.983 for the second.

First: C34U G50A
Second: C34U G50C
The self-cleavage of the first is higher: 1.03 for the first, 0.999 for the second.

Compared with C34U G56A, C34U G56C is lower in self-cleavage: 0.955 for the first, 0.792 for the second.

Going from C34U G56U to C34U G65A, the self-cleavage falls from 0.975 to 0.919.

Compared with C34U G65C, C34U G68A is higher in self-cleavage: 0.682 for the first, 1.01 for the second.

Compared with C34U G68C, C34U U36C is lower in self-cleavage: 0.962 for the first, 0.922 for the second.

First: C34U U36G
Second: C34U U43G
The self-cleavage of the first is lower: 0.256 for the first, 0.708 for the second.

Compared with C34U U44A, C34U U44C is lower in self-cleavage: 0.963 for the first, 0.938 for the second.

First: C34U U44G
Second: C34U U46A
The self-cleavage of the first is lower: 0.859 for the first, 1 for the second.

Compared with C34U U46C, C34U U46G is higher in self-cleavage: 0.977 for the first, 0.988 for the second.

First: C34U U49A
Second: C34U U49C
The self-cleavage of the first is lower: 0.996 for the first, 0.998 for the second.

First: C34U U49G
Second: C34U U53C
The self-cleavage of the first is higher: 0.985 for the first, 0.943 for the second.

Compared with C34U U53G, C34U U55A is higher in self-cleavage: 0.728 for the first, 0.925 for the second.

Going from C34U U55G to C34U U61A, the self-cleavage rises from 0.84 to 0.952.

Going from C34U U61G to C34U U62A, the self-cleavage rises from 0.711 to 0.921.

First: C34U U62G
Second: C34U U64C
The self-cleavage of the first is lower: 0.892 for the first, 0.971 for the second.

Going from C34U U64G to C34U U67G, the self-cleavage rises from 0.928 to 0.982.

Going from C34U U69A to C34U U69C, the self-cleavage rises from 1.01 to 1.07.

Going from C34U U69G to C35A A42C, the self-cleavage falls from 1.04 to 0.229.

Going from C35A A42G to C35A A42U, the self-cleavage falls from 0.281 to 0.19.

Compared with C35A A51C, C35A A51G is lower in self-cleavage: 0.255 for the first, 0.234 for the second.

First: C35A A52C
Second: C35A A52G
The self-cleavage of the first is higher: 0.316 for the first, 0.247 for the second.

For C35A A59C, the self-cleavage was 0.204.
